# Assay results from patent publication US20130136721A1, “Compositions and Methods of Generating a Differentiated Mesodermal Cell” (THE JOHNS HOPKINS UNIVERSITY, priority 2010, published 2013).
# Entries after “also recorded” stand apart in the source; their conditions may differ.
# B1: activin A: growth factor titrated between 1-100 ng mL-1 (protein, UniProt P08476 311-426, looked up)
# Inhibin beta A chain: GLECDGKVNICCKKQFFVSFKDIGWNDWIIAPSGYHANYCEGECPSHIAGTSGSSLSFHSTVINHYRMRGHSPFANLKSCCVPTKLRPMSMLYYDDGQNIIKKDIQNMIVEECGCS
# B2: transferrin: bovine transferrin media supplement (protein, UniProt Q29443 20-704, looked up)
# Serotransferrin: DPERTVRWCTISTHEANKCASFRENVLRILESGPFVSCVKKTSHMDCIKAISNNEADAVTLDGGLVYEAGLKPNNLKPVVAEFHGTKDNPQTHYYAVAVVKKDTDFKLNELRGKKSCHTGLGRSAGWNIPMAKLYKELPDPQESIQRAAANFFSASCVPCADQSSFPKLCQLCAGKGTDKCACSNHEPYFGYSGAFKCLMEGAGDVAFVKHSTVFDNLPNPEDRKNYELLCGDNTRKSVDDYQECYLAMVPSHAVVARTVGGKEDVIWELLNHAQEHFGKDKPDNFQLFQSPHGKDLLFKDSADGFLKIPSKMDFELYLGYEYVTALQNLRESKPPDSSKDECMVKWCAIGHQERTKCDRWSGFSGGAIECETAENTEECIAKIMKGEADAMSLDGGYLYIAGKCGLVPVLAENYKTEGESCKNTPEKGYLAVAVVKTSDANINWNNLKDKKSCHTAVDRTAGWNIPMGLLYSKINNCKFDEFFSAGCAPGSPRNSSLCALCIGSEKGTGKECVPNSNERYYGYTGAFRCLVEKGDVAFVKDQTVIQNTDGNNNEAWAKNLKKENFEVLCKDGTRKPVTDAENCHLARGPNHAVVSRKDKATCVEKILNKQQDDFGKSVTDCTSNFCLFQSNSKDLLFRDDTKCLASIAKKTYDSYLGDDYVRAMTNLRQCSTSKLLEACTFHKP
# B3: TDGF1: growth factor titrated between 1-100 ng mL-1 (protein, UniProt P13385 31-150, looked up)
# Protein Cripto: LGHQEFARPSRGYLAFRDDSIWPQEEPAIRPRSSQRVPPMGIQHSKELNRTCCLNGGTCMLGSFCACPPSFYGRNCEHDVRKENCGSVPHDTWLPKKCSLCKCWHGQLRCFPQAFLPGCD
# B4: BMP6: growth factor titrated between 1-100 ng mL-1 (protein, UniProt P22004 375-513, looked up)
# Bone morphogenetic protein 6: SASSRRRQQSRNRSTQSQDVARVSSASDYNSSELKTACRKHELYVSFQDLGWQDWIIAPKGYAANYCDGECSFPLNAHMNATNHAIVQTLVHLMNPEYVPKPCCAPTKLNAISVLYFDDNSNVILKKYRNMVVRACGCH
# B5: NODAL: growth factor titrated between 1-100 ng mL-1 (protein, UniProt Q96S42 238-347, looked up)
# Nodal homolog: HHLPDRSQLCRKVKFQVDFNLIGWGSWIIYPKQYNAYRCEGECPNPVGEEFHPTNHAYIQSLLKRYQPHRVPSTCCAPVKTKPLSMLYVDNGRVLLDHHKDMIVEECGCL
# B6: DKK1: additional supplement to serum-free d2-d4 medium (protein, UniProt O94907 32-266, looked up)
# Dickkopf-related protein 1: TLNSVLNSNAIKNLPPPLGGAAGHPGSAVSAAPGILYPGGNKYQTIDNYQPYPCAEDEECGTDEYCASPTRGGDAGVQICLACRKRRKRCMRHAMCCPGNYCKNGICVSSDQNHFRGEIEETITESFGNDHSTLDGYSRRTTLSSKMYHTKGQEGSVCLRSSDCASGLCCARHFWSKICKPVLKEGQVCTKHRRKGSHGLEIFQRCYCGEGLSCRIQKDHHQASNSSRLHTCQRH
# B7: BMP4: bone morphogenic protein 4, mesodermal morphogen growth factor (protein, UniProt P12644 293-408, looked up)
# Bone morphogenetic protein 4: SPKHHSQRARKKNKNCRRHSLYVDFSDVGWNDWIVAPPGYQAFYCHGDCPFPLADHLNSTNHAIVQTLVNSVNSSIPKACCVPTELSAISMLYLDEYDKVVLKNYQEMVVEGCGCR
# Columns and labels:
# H9 hESC = test: Beating hEB assay (contracting hEB after forced aggregation cardiac differentiation); format: cell-based, human; conditions: for effect on cardiac differentiation, phase 2 medium: supplement in d0-d2 medium; for effect on cardiac differentiation, phase 2 medium / effect on cardiac differentiation, phase 3 medium: contracting hEB d9; for effect on cardiac differentiation, phase 3 medium: supplement in d2-d4 medium
# From the text: The cardiac differentiation protocol was divided into four distinct phases for optimization (FIG. 3A): phase 1: uniform undifferentiated growth; phase 2: hEB formation/mesoderm induction; phase 3: hEB cardiac specification; phase 4: contracting cardiomyocyte development. […] After an initial round of optimizations had been completed, optimizations was repeated a second time to account for the new media formulations and then a third time to optimize the final media formulation. In some cases fourth and fifth repeats were performed to improve the statistical power of the results. For each variable tested, the bell-curve distribution of dose-response was determined. Results shown are averages of the 2nd-5th replicates (FIG. 2B).
# For forced aggregation hEB differentiations, confluent hESC or hiPSC which had been grown on a commercially available extracellular matrix, Geltrex (Invitrogen) as monolayers for 3 to 13 passages were passaged with TrypLE Select and seeded at 2.5×10^6 per T25 flask. After 24 hours growth, cells were washed with PBS and treated with room temperature TrypLE Select for 1 minute at 37° C. Cells were seeded at 5000 cells per well in 96-well V-bottom uncoated plates (249952, NUNC) in 100 μL per well RPMI+PVA medium consisting of RPMI Media 1640 (with L-Glutamine), 4 mg mL-1 polyvinyl alcohol (P8136, Sigma, dissolved in RPMI at 4° C. for at least 72 hours, mixing by inversion every day), 1% chemically defined lipid concentrate, 10 μg mL-1 recombinant human insulin (Sigma), 400 μM 1-thioglycerol (Sigma), 25 ng mL-1 BMP4 and 5 ng mL-1 FGF2 (both from R&D systems), 1 μM Y-27632 (Calbiochem). This medium is not stable and was made fresh for each experiment. After 48 hours (on day 2) medium was aspirated with a Costar 8-channel aspirator (Corning) and replaced with RPMI+FBS medium consisting RPMI Media 1640, 20% characterized FBS (Hyclone), 400 μM 1-thioglycerol. On day 4 media was changed to RPMI+PVA without growth factors and hEB were transferred to 96-well U-bottom tissue culture treated plates (650180, Greiner Bio-One). Media was changed on d7 and every 3 days afterwards. hEB were visually assessed for contraction on d9 using a Nikon Eclipse Ti inverted tissue culture microscope with a TOKAI-HIT heated stage (Nikon). Images were captured using NIS-Elements (Nikon). […] For traditional cardiac differentiations using FBS, undirected differentiation was performed as previously described (Kehat et al. J Clin Invest 108, 407-414 (2001)): briefly, confluent H9 hESC grown as colonies on MEF were treated with collagenase IV for 5 minutes at 37° C. then washed from the plate using a 5 mL pipette. Cell clusters were then transferred to Petri dishes in 20% FBS medium for 7 days. hEB were then transferred to gelatin coated tissue culture plates. Media was changed every 3 days.
# One single replicate consists of one 96-well plate. Repeat replicates were performed 1-4 months apart using a different vial of cells. Each experiment was repeated at least 3 times representing at least 288 hEB. Total number of hEB assessed in this work exceeds 80,000. Wells in which no hEB was detected due to pipeting error were excluded and accounted for approximately 1-5% of wells. P-values were established using unpaired two-tailed Student's t-test.
# iPS(IMR90)-1 hiPSC = test: as above; format: cell-based, human; conditions: d0-d2
# From the text: The cardiac differentiation protocol was divided into four distinct phases for optimization (FIG. 3A): phase 1: uniform undifferentiated growth; phase 2: hEB formation/mesoderm induction; phase 3: hEB cardiac specification; phase 4: contracting cardiomyocyte development. A simple beating hEB assay was used to sequentially assess improvements in cardiac differentiation in each of these four phases by counting the number of hEB contracting after nine days of differentiation, a time point that was identified as the day of maximum percentage contraction in the enhanced ‘prototype’ version of the protocol (FIG. 1B). After an initial round of optimizations had been completed, optimizations was repeated a second time to account for the new media formulations and then a third time to optimize the final media formulation. […] For each variable tested, the bell-curve distribution of dose-response was determined. […]
# For forced aggregation hEB differentiations, confluent hESC or hiPSC which had been grown on a commercially available extracellular matrix, Geltrex (Invitrogen) as monolayers for 3 to 13 passages were passaged with TrypLE Select and seeded at 2.5×10^6 per T25 flask. […] Media was changed on d7 and every 3 days afterwards. hEB were visually assessed for contraction on d9 using a Nikon Eclipse Ti inverted tissue culture microscope with a TOKAI-HIT heated stage (Nikon). […]
molecule,measurement,setting,value
B1,"effect on cardiac differentiation, phase 2 medium",H9 hESC,none were found to have the same potency as BMP4
B2,"effect on cardiac differentiation, phase 2 medium",H9 hESC,either did not further enhance differentiation or had negative effects on differentiation
same,"effect on cardiac differentiation, phase 3 medium",H9 hESC,"Neither transferrin, L-ascorbic acid, lipids or NEAA enhanced this phase of differentiation"
same,"effect on cardiac differentiation, phase 4 medium",H9 hESC; supplement in d4 onwards medium,not required
B3,"effect on cardiac differentiation, phase 2 medium",H9 hESC,none were found to have the same potency as BMP4
B4,"effect on cardiac differentiation, phase 2 medium",H9 hESC,none were found to have the same potency as BMP4
B5,"effect on cardiac differentiation, phase 2 medium",H9 hESC,none were found to have the same potency as BMP4
B6,"effect on cardiac differentiation, xeno- and serum-free d2-d4 medium",H9 hESC; supplement in serum-free d2-d4 medium,did not further enhance differentiation
B7,most effective BMP4 concentration,iPS(IMR90)-1 hiPSC,5 ng/mL
same,most effective BMP4 concentration,H9 hESC; d0-d2,25 ng/mL
same,"effect on cardiac differentiation, phase 3 medium",H9 hESC,did not further enhance this phase; also recorded: did not enhance cardiac differentiation
